Data from PMC11551757, “Phylogenomic instructed target analysis reveals ELAV complex binding to multiple optimally spaced U-rich motifs”.

T1: ELAV (rELAV) (Drosophila melanogaster?) (UniProt P16914)
T1 sequence: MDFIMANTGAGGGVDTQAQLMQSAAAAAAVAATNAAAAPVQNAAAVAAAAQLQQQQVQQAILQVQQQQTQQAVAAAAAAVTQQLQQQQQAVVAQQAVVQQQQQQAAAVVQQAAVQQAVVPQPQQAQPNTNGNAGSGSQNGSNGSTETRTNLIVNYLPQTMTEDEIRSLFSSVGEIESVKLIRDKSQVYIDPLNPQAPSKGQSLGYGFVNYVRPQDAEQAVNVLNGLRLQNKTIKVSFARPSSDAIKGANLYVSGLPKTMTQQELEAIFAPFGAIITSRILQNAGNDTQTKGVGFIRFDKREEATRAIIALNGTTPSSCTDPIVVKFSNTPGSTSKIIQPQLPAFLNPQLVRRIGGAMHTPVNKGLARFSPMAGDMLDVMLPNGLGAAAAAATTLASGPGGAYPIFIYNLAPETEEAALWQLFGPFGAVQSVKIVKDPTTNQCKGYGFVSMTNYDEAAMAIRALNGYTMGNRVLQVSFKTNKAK

T2: ELAV (rELAV) (UniProt P16914 1-483)
T2 sequence: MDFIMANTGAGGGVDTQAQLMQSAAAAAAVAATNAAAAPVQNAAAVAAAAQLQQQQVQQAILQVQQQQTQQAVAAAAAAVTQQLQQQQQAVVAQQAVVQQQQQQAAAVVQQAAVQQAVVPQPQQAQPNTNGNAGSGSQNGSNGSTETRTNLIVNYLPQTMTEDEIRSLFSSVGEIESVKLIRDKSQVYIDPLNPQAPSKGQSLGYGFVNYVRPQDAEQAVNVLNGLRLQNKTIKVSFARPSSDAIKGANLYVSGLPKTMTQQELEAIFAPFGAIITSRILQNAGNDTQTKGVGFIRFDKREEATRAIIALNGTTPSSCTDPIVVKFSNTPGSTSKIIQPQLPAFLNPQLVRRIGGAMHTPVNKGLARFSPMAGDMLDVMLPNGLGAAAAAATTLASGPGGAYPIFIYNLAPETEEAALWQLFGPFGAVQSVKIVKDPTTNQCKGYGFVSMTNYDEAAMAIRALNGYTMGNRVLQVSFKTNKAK


Key:
ELAV (rELAV) [1] = target: T1, ELAV (rELAV); assay: EMSA; details: EMSA: 50 mM Tris-HCl pH 7.5, 60 mM NaCl, 25 ug/ml tRNA, 0.5 mM DTT, 50 ug/ml acetylated BSA, 20 min; 4-6% native gel in 0.5x TBE at 4 C. Footprinting: …
ELAV (rELAV) [2] = target: T2, ELAV (rELAV); assay: EMSA; EMSA: 50 mM Tris-HCl pH 7.5, 60 mM NaCl, 25 ug/ml tRNA, 0.5 mM DTT, 50 ug/ml acetylated BSA, 20 min; 4-6% native gel in 0.5x TBE at 4 C. Footprinting: complexes formed as for EMSA, 15 min at room temperature; details: protein: recombinant; tags: GST tag, cleaved off with PreScission protease

Molecule | Kd (ELAV (rELAV) [1]) | binding signal (ELAV (rELAV) [2])
5PtaseI RNA | 24 nM | –
CG4662 RNA | 80 nM | –
Ect4 RNA | 100 nM | –
Teh2 RNA | 430 nM | –
GAAGCUAUUAUACAUUUUAUCUUAUAACUCUAUACUUUAUGUU (ssRNA) [M7H A(CU)2 in m3r] | – | 2.5 fold lower affinity than M7H
